The results in this text go back to article PMC10748074.

The assay concerns the target Keap1 labeled with Cy3 (UniProt Q14145). The assay is described as follows: MST.
UniProt Q14145, sequence (Q14145 whole entry): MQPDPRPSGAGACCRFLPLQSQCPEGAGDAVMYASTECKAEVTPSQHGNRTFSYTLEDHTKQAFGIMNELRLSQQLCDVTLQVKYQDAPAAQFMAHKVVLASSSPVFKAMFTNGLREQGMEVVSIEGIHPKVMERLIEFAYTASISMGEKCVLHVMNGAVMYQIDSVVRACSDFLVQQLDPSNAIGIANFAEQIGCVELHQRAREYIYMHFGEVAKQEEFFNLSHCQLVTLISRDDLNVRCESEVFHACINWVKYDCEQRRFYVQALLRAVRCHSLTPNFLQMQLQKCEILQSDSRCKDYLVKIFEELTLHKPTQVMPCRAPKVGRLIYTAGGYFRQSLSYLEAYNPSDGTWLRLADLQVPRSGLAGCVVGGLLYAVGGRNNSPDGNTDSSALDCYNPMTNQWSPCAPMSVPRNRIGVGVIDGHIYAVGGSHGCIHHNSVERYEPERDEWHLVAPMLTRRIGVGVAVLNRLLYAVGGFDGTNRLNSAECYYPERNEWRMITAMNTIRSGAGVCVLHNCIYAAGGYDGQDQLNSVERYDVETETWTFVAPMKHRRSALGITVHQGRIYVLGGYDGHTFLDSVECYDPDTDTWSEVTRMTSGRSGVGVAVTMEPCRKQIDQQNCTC

The Kd is the equilibrium constant for the complex coming apart. In turn, “MNT0, control modular nanotransporter lacking the antiKeap1 monobody fragment” yielded a Kd of 0.093 µM.

Turning to “free translocation domain of diphtheria toxin, DTox (from UniProt P00588 33-567) (domain or fragment)”, the Kd was greater than 1 µM.
